{"source": "the supplement of paper PMC10567573", "parents": {"B1": {"name": "USP39 (parent)", "chain": "FQGSMRIFTKKLPHPDLPAEEKEQ"}}, "data": [{"variants_of": "B1", "assay": "protein stability index of a GFP-peptide fusion (GPS, HEK-293T) (PSI 1-6); higher = more stable", "conditions": "c terminus: a fixed tail appended", "values": [{"variant": "FQGSMRIFTKKLPHPDLGAEEKEQ", "protein stability index": 1.98}, {"variant": "FQGSMRIFTKKLPHPDLFAEEKEQ", "protein stability index": 2.11}, {"variant": "FQGSMRIFTKKLPHPDLDAEEKEQ", "protein stability index": 1.93}, {"variant": "FQGSMRIFTKKLPHPDLIAEEKEQ", "protein stability index": 1.7}, {"variant": "FQGSMRIFTKKLPHPDLEAEEKEQ", "protein stability index": 1.8}, {"variant": "FQGSMRIFTKKLPHPDLCAEEKEQ", "protein stability index": 1.83}, {"variant": "FIGSMRIFTKKLPHPDLPAEEKEQ", "protein stability index": 1.78}, {"variant": "FEGSMRIFTKKLPHPDLPAEEKEQ", "protein stability index": 4.12}, {"variant": "FPGSMRIFTKKLPHPDLPAEEKEQ", "protein stability index": 1.75}, {"variant": "FKGSMRIFTKKLPHPDLPAEEKEQ", "protein stability index": 4.16}, {"variant": "FHGSMRIFTKKLPHPDLPAEEKEQ", "protein stability index": 3.58}, {"variant": "FNGSMRIFTKKLPHPDLPAEEKEQ", "protein stability index": 2.85}, {"variant": "FWGSMRIFTKKLPHPDLPAEEKEQ", "protein stability index": 2.82}, {"variant": "FSGSMRIFTKKLPHPDLPAEEKEQ", "protein stability index": 2.7}, {"variant": "FYGSMRIFTKKLPHPDLPAEEKEQ", "protein stability index": 2.92}, {"variant": "FQGSMHIFTKKLPHPDLPAEEKEQ", "protein stability index": 1.83}, {"variant": "FQGSMAIFTKKLPHPDLPAEEKEQ", "protein stability index": 1.92}, {"variant": "FQGSMPIFTKKLPHPDLPAEEKEQ", "protein stability index": 2.37}, {"variant": "FQGSMGIFTKKLPHPDLPAEEKEQ", "protein stability index": 1.64}, {"variant": "YQGSMRIFTKKLPHPDLPAEEKEQ", "protein stability index": 2.11}, {"variant": "TQGSMRIFTKKLPHPDLPAEEKEQ", "protein stability index": 4.86}, {"variant": "KQGSMRIFTKKLPHPDLPAEEKEQ", "protein stability index": 4.9}, {"variant": "SQGSMRIFTKKLPHPDLPAEEKEQ", "protein stability index": 5.04}, {"variant": "LQGSMRIFTKKLPHPDLPAEEKEQ", "protein stability index": 4.29}, {"variant": "EQGSMRIFTKKLPHPDLPAEEKEQ", "protein stability index": 5.48}, {"variant": "CQGSMRIFTKKLPHPDLPAEEKEQ", "protein stability index": 4.82}, {"variant": "FQGSMRIFTKKLPHPDLPAEEKEM", "protein stability index": 2.05}, {"variant": "FQGSMRIFTKKLPHPDLPAEEKET", "protein stability index": 2.1}, {"variant": "FQGSMRIFTKKLPHPDLPAEEKEW", "protein stability index": 1.33}, {"variant": "FQGSMRIFTKKLPHPDLPAEEKEN", "protein stability index": 2.12}, {"variant": "FQGSMRIFTKHLPHPDLPAEEKEQ", "protein stability index": 1.57}, {"variant": "FQGSMRIFTKELPHPDLPAEEKEQ", "protein stability index": 2.85}, {"variant": "FQGSMRIFTKQLPHPDLPAEEKEQ", "protein stability index": 1.85}, {"variant": "FQGSMRIFTKFLPHPDLPAEEKEQ", "protein stability index": 1.7}, {"variant": "FQGSMRIFTKDLPHPDLPAEEKEQ", "protein stability index": 2.08}, {"variant": "FQGSMRIFTKMLPHPDLPAEEKEQ", "protein stability index": 1.61}, {"variant": "FQGSMRIFTKGLPHPDLPAEEKEQ", "protein stability index": 1.94}, {"variant": "FQGSMRIFTKWLPHPDLPAEEKEQ", "protein stability index": 1.85}, {"variant": "FQGSMRIFTKPLPHPDLPAEEKEQ", "protein stability index": 1.84}, {"variant": "FQGSMRIFTKNLPHPDLPAEEKEQ", "protein stability index": 2.35}, {"variant": "FQGSMRIFTKTLPHPDLPAEEKEQ", "protein stability index": 1.96}, {"variant": "FQGSMRIFTKSLPHPDLPAEEKEQ", "protein stability index": 1.9}, {"variant": "FQGSMRIFTKILPHPDLPAEEKEQ", "protein stability index": 1.87}, {"variant": "FQGSDRIFTKKLPHPDLPAEEKEQ", "protein stability index": 2.11}, {"variant": "FQGSSRIFTKKLPHPDLPAEEKEQ", "protein stability index": 1.61}, {"variant": "FQGSTRIFTKKLPHPDLPAEEKEQ", "protein stability index": 1.61}, {"variant": "FQGSLRIFTKKLPHPDLPAEEKEQ", "protein stability index": 2.01}, {"variant": "FQGSFRIFTKKLPHPDLPAEEKEQ", "protein stability index": 1.89}, {"variant": "FQGSCRIFTKKLPHPDLPAEEKEQ", "protein stability index": 2.62}, {"variant": "FQGSIRIFTKKLPHPDLPAEEKEQ", "protein stability index": 1.66}, {"variant": "FQGSYRIFTKKLPHPDLPAEEKEQ", "protein stability index": 1.85}, {"variant": "FQGSHRIFTKKLPHPDLPAEEKEQ", "protein stability index": 1.82}, {"variant": "FQGSGRIFTKKLPHPDLPAEEKEQ", "protein stability index": 1.73}, {"variant": "FQGSMRIFSKKLPHPDLPAEEKEQ", "protein stability index": 1.75}, {"variant": "FQGSMRIFAKKLPHPDLPAEEKEQ", "protein stability index": 2.04}, {"variant": "FQGSMRIFGKKLPHPDLPAEEKEQ", "protein stability index": 2.25}, {"variant": "FQGSMRIFKKKLPHPDLPAEEKEQ", "protein stability index": 2.08}, {"variant": "FQGSMRIFEKKLPHPDLPAEEKEQ", "protein stability index": 3.07}, {"variant": "FQGSMRIFCKKLPHPDLPAEEKEQ", "protein stability index": 1.69}, {"variant": "FQGSMRIFLKKLPHPDLPAEEKEQ", "protein stability index": 1.92}, {"variant": "FQGSMREFTKKLPHPDLPAEEKEQ", "protein stability index": 4.04}, {"variant": "FQGSMRQFTKKLPHPDLPAEEKEQ", "protein stability index": 3.65}, {"variant": "FQGSMRSFTKKLPHPDLPAEEKEQ", "protein stability index": 3.38}, {"variant": "FQGSMRVFTKKLPHPDLPAEEKEQ", "protein stability index": 1.99}, {"variant": "FQGSMRGFTKKLPHPDLPAEEKEQ", "protein stability index": 2.89}, {"variant": "FQGSMRYFTKKLPHPDLPAEEKEQ", "protein stability index": 2.12}, {"variant": "FQGSMRHFTKKLPHPDLPAEEKEQ", "protein stability index": 2.97}, {"variant": "FQGSMRCFTKKLPHPDLPAEEKEQ", "protein stability index": 1.8}, {"variant": "FQGSMRTFTKKLPHPDLPAEEKEQ", "protein stability index": 3.01}, {"variant": "FQGSMRIFTNKLPHPDLPAEEKEQ", "protein stability index": 2.81}, {"variant": "FQGSMRIFTLKLPHPDLPAEEKEQ", "protein stability index": 2.53}, {"variant": "FQGSMRIFTTKLPHPDLPAEEKEQ", "protein stability index": 1.19}, {"variant": "FQGSMRIFTGKLPHPDLPAEEKEQ", "protein stability index": 2.2}, {"variant": "FQGSMRIFTDKLPHPDLPAEEKEQ", "protein stability index": 2.07}, {"variant": "FQGSMRIFTKKLPHPDLPVEEKEQ", "protein stability index": 2.25}, {"variant": "FQGSMRIFTKKLPHPDLPMEEKEQ", "protein stability index": 1.63}, {"variant": "FQGSMRIFTKKLPHPDLPWEEKEQ", "protein stability index": 1.58}, {"variant": "FQGSMRIFTKKLPHPDLPYEEKEQ", "protein stability index": 1.34}, {"variant": "FQGSMRIFTKKLPHPDLPKEEKEQ", "protein stability index": 1.73}, {"variant": "FQGSMRIFTKKLPHPDLPLEEKEQ", "protein stability index": 2.25}, {"variant": "FQGSMRIFTKKLPHPDLPREEKEQ", "protein stability index": 1.64}, {"variant": "FQGSMRIFTKKLPHPDLPEEEKEQ", "protein stability index": 2.37}, {"variant": "FQGSMRIFTKKLPHPDLPIEEKEQ", "protein stability index": 1.53}, {"variant": "FQGSMRIFTKKLPHPDLPDEEKEQ", "protein stability index": 2.07}, {"variant": "FQGSMRIFTKKYPHPDLPAEEKEQ", "protein stability index": 2}, {"variant": "FQGSMRIFTKKQPHPDLPAEEKEQ", "protein stability index": 2.23}, {"variant": "FQGSMRIFTKKRPHPDLPAEEKEQ", "protein stability index": 1.32}, {"variant": "FQGSMRIFTKKVPHPDLPAEEKEQ", "protein stability index": 1.74}, {"variant": "FQGSMRIFTKKPPHPDLPAEEKEQ", "protein stability index": 2.45}, {"variant": "FQGSMRIFTKKDPHPDLPAEEKEQ", "protein stability index": 2.63}, {"variant": "FQGSMRIFTKKTPHPDLPAEEKEQ", "protein stability index": 1.93}, {"variant": "FQGSMRIFTKKNPHPDLPAEEKEQ", "protein stability index": 2.05}, {"variant": "FQGSMRIFTKKWPHPDLPAEEKEQ", "protein stability index": 1.45}, {"variant": "FQGSMRIFTKKFPHPDLPAEEKEQ", "protein stability index": 1.47}]}]}
